Laboratory results as given in patent US20240240209A1, “SYNTHESIS OF ENANTIOPURE CIS-A-IRONE FROM A RENEWABLE CARBON SOURCE” (Agency for Science, Technology and Research, priority 2021, published 2024).
Numbering of substitutions follows the chain as printed. In names and notes the source's numbering stands.

Test: Cell lysate reaction of pMT enzymes with psi-ionone, irones quantified by HS-SPME-GCMS
Type: biochemical
Details: AUC vs non-mutated (=1)
Procedure, shortened: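 pMT1 site-saturation mutants were expressed in E. coli BL21(DE3) and lysed, and lysates were incubated 2 days at 28 °C with 0.2 mM SAM and 10 mg/L psi-ionone (plus caryophyllene) in 50 mM Tris pH 7, 10 mM MgCl2. Cis-α-irone was measured by HS-SPME-GCMS peak area and given as fold change over non-mutated enzyme.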

B1: pMT1_E153S: pMT1 with E153S (protein)
chain: MPQEARTPQQQVTADEVGDWYDKFGEVYHLTLGESVHCGLWFPPDAPVPQDMELVTMSSQAQDRYTDYLIETLDPKAGQHLLDIGCGTGRTALKAARQRGIAVTGVAVSKEQIAAANRLAAGHGLTERLTFEVADAMRLPYEDESFDCAWAISSLCHMDRAKALGEAWRVLKPGGDLLVLESVVTEELTEPETALFETLYAANVPPRLGEFFDIVSGAGFHTLSLKDLSANLAMTMNVFALGVYSRRAEFTERFGAEFVDGLLAGLGSAQETLIRKTRFFMATLRKPAV
fold change in cis-α-irone produced (pMT1_E153 mutants): 0.0

B2: pMT1_R160A: pMT1 with R160A (protein)
chain: B1 chain with S153E, R160A
fold change in cis-α-irone produced (pMT1_R160 mutants): 1.7

B3: pMT1_R160W: pMT1 with R160W (protein)
chain: B1 chain with S153E, R160W
fold change in cis-α-irone produced (pMT1_R160 mutants): 0.7

B4: pMT1_R160V: pMT1 with R160V (protein)
chain: B1 chain with S153E, R160V
fold change in cis-α-irone produced (pMT1_R160 mutants): 1.5

B5: pMT1_M236D: pMT1 with M236D (protein)
chain: B1 chain with S153E, M236D
fold change in cis-α-irone produced (pMT1_M236 mutants): 0.0

B6: pMT1_M236A: pMT1 with M236A (protein)
chain: B1 chain with S153E, M236A
fold change in cis-α-irone produced (pMT1_M236 mutants): 0.7

B7: pMT1_E153A: pMT1 with E153A (protein)
chain: B1 chain with S153A
fold change in cis-α-irone produced (pMT1_E153 mutants): 0.1

B8: pMT1_E153W: pMT1 with E153W (protein)
chain: B1 chain with S153W
fold change in cis-α-irone produced (pMT1_E153 mutants): 0.0

B9: pMT1_E153C: pMT1 with E153C (protein)
chain: B1 chain with S153C
fold change in cis-α-irone produced (pMT1_E153 mutants): 0.0

B10: pMT1_R160T: pMT1 with R160T (protein)
chain: B1 chain with S153E, R160T
fold change in cis-α-irone produced (pMT1_R160 mutants): 1.2

B11: pMT1_R160C: pMT1 with R160C (protein)
chain: B1 chain with S153E, R160C
fold change in cis-α-irone produced (pMT1_R160 mutants): 1.5

B12: pMT1_Y200E: pMT1 with Y200E (protein)
chain: B1 chain with S153E, Y200E
fold change in cis-α-irone produced (pMT1_Y200 mutants): 0.0

B13: pMT1_E153D: pMT1 with E153D (protein)
chain: B1 chain with S153D
fold change in cis-α-irone produced (pMT1_E153 mutants): 0.2

B14: pMT1_R160D (protein)
chain: B1 chain with S153E, R160D
fold change in cis-α-irone produced (pMT1_R160 mutants): 0.0

B15: pMT1_E153Y: pMT1 with E153Y (protein)
chain: B1 chain with S153Y
fold change in cis-α-irone produced (pMT1_E153 mutants): 0.0

B16: pMT1_Y200D: pMT1 with Y200D (protein)
chain: B1 chain with S153E, Y200D
fold change in cis-α-irone produced (pMT1_Y200 mutants): 0.0

B17: pMT1_E153T: pMT1 with E153T (protein)
chain: B1 chain with S153T
fold change in cis-α-irone produced (pMT1_E153 mutants): 0.0

B18: pMT1_R160Y (protein)
chain: B1 chain with S153E, R160Y
fold change in cis-α-irone produced (pMT1_R160 mutants): 1.3

B19: pMT1_M236E: pMT1 with M236E (protein)
chain: B1 chain with S153E, M236E
fold change in cis-α-irone produced (pMT1_M236 mutants): 0.9

B20: pMT1_Y200V: pMT1 with Y200V (protein)
chain: B1 chain with S153E, Y200V
fold change in cis-α-irone produced (pMT1_Y200 mutants): 1.1

B21: pMT1_M236W: pMT1 with M236W (protein)
chain: B1 chain with S153E, M236W
fold change in cis-α-irone produced (pMT1_M236 mutants): 0.2

B22: pMT1_Y200A: pMT1 with Y200A (protein)
chain: B1 chain with S153E, Y200A
fold change in cis-α-irone produced (pMT1_Y200 mutants): 0.2

B23: pMT1_Y200C: pMT1 with Y200C (protein)
chain: B1 chain with S153E, Y200C
fold change in cis-α-irone produced (pMT1_Y200 mutants): 0.1

B24: pMT1_S182E: pMT1 with S182E (protein)
chain: B1 chain with S153E, S182E
fold change in cis-α-irone produced (pMT1_S182 mutants): 0.84

B25: pMT1_S182T: pMT1 with S182T (protein)
chain: B1 chain with S153E, S182T
fold change in cis-α-irone produced (pMT1_S182 mutants): 0.23

B26: pMT1_M236C: pMT1 with M236C (protein)
chain: B1 chain with S153E, M236C
fold change in cis-α-irone produced (pMT1_M236 mutants): 4.7

B27: pMT1_M236T: pMT1 with M236T (protein)
chain: B1 chain with S153E, M236T
fold change in cis-α-irone produced (pMT1_M236 mutants): 1.7

B28: pMT1_Y200T: pMT1 with Y200T (protein)
chain: B1 chain with S153E, Y200T
fold change in cis-α-irone produced (pMT1_Y200 mutants): 0.0

B29: pMT1_Y200W: pMT1 with Y200W (protein)
chain: B1 chain with S153E, Y200W
fold change in cis-α-irone produced (pMT1_Y200 mutants): 2.1

B30: pMT1_M236Y: pMT1 with M236Y (protein)
chain: B1 chain with S153E, M236Y
fold change in cis-α-irone produced (pMT1_M236 mutants): 0.0

B31: pMT1_M236V (protein)
chain: B1 chain with S153E, M236V
fold change in cis-α-irone produced (pMT1_M236 mutants): 0.7

B32: pMT1_R160E (protein)
chain: B1 chain with S153E, R160E
fold change in cis-α-irone produced (pMT1_R160 mutants): 0.0

B33: pMT1_E153V: pMT1 with E153V (protein)
chain: B1 chain with S153V
fold change in cis-α-irone produced (pMT1_E153 mutants): 0.0
